Results on two molecules are retold here after patent US20250206834A1 (LANOVA MEDICINES, published 2025).

The target of one assay is T1, human 4-1BB (human, UniProt Q07011 24-255).
T1 construct: whole, on cells; also called hu4-1BB; CD137
Briefly: flow cytometry, CHO-K1 cells overexpressing human 4-1BB. (Flow cytometry measures light scatter and fluorescence of single cells or particles in a stream.)

Assay [1] addresses T2, human CEACAM5 protein (Sino-11077-H08H-100UG) (human, UniProt P06731 35-685).
T2 construct: Bought protein; also called soluble recombinant CEACAM5
T2 sequence (looked up): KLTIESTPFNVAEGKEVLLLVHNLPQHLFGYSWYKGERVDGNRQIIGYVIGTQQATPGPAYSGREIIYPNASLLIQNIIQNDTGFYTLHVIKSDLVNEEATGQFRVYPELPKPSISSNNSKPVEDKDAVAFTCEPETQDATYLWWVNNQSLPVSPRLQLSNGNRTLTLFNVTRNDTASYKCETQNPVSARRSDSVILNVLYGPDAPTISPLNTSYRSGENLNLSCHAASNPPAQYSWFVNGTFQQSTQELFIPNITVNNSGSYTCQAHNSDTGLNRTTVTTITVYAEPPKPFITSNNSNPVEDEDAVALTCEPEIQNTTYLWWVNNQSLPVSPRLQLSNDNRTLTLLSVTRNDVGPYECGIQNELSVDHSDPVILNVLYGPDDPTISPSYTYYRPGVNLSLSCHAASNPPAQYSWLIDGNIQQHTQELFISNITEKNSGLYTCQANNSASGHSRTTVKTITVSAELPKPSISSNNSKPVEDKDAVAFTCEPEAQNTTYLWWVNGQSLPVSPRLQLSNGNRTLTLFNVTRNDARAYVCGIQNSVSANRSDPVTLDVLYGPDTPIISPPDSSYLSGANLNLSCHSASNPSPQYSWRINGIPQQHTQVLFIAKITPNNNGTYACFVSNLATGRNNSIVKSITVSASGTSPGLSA
Briefly: ELISA, human CEACAM5 protein coated at 2 ug/mL. (In general: An ELISA detects its analyte on a solid surface through an enzyme-linked reagent.)

T1 sequence (Q07011 24-255): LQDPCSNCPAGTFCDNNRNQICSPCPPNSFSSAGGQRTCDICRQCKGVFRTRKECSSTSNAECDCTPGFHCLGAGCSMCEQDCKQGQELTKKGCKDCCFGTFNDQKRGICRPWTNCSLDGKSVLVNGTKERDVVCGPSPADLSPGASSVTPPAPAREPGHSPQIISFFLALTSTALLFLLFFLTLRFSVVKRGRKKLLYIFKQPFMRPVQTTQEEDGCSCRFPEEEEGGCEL

B1: IMMU130-263-1-3 (bispecific antibody)
heavy (part 1 of 2): EVQLVESGGGVVQPGRSLRLSCSASGFDFTTYWMSWVRQAPGKGLEWIGEIHPDSSTINYAPSLKDRFTISRDNAKNTLFLQMDSLRPEDTGVYFCASLYFGFPWFAYWGQGTPVTVSS
heavy (part 2 of 2): GGGGSGGGGSGGGGSGGGGSEVQLLESGGGLVQPGGSLRLSCAASGFTFSSSAMSWARQTPGKGFEWVSGIYSGGSTYYTESVKDRFTISRDNSKNTVYLQMNSLKPEDTAVYYCATWGTLRFGVWAEYDHWGQGTQVTVSS
light: DIQLTQSPSSLSASVGDRVTITCKASQDVGTSVAWYQQKPGKAPKLLIYWTSTRHTGVPSRFSGSGSGTDFTFTISSLQPEDIATYYCQQYSLYRSFGQGTKVEIK
notes: also called parental bispecific antibody; parental antibody; not shown: IgG1 heavy chain constant region (full IgG part, Fc of IgG1 backbone with N297A mutation); light chain constant region is not described
With B1, in the assay with human 4-1BB, the binding result was “binds”.

B2: Labetuzumab (antibody, V domains shown)
VH: EVQLVESGGGVVQPGRSLRLSCSASGFDFTTYWMSWVRQAPGKGLEWIGEIHPDSSTINYAPSLKDRFTISRDNAKNTLFLQMDSLRPEDTGVYFCASLYFGFPWFAYWGQGTPVTVSS
VL: DIQLTQSPSSLSASVGDRVTITCKASQDVGTSVAWYQQKPGKAPKLLIYWTSTRHTGVPSRFSGSGSGTDFTFTISSLQPEDIATYYCQQYSLYRSFGQGTKVEIK
notes: also called Immu130; parental CEACAM5 antibody
With B2, the binding result in assay [1] is recorded as “binds”.
